Results: publication doi:10.1101/789909 (bioRxiv, 2019)

Key:
purified DmsD (E. coli) = purified DmsD (E. coli) (UniProt P69853); assay: SPR
[1] = target: T1, EcTatBC with 6xHis tag (complex of TatB and TatC), purified (E. coli, UniProt P69425 1-171; P69423 1-258); assay: SPR
T1 sequence 1: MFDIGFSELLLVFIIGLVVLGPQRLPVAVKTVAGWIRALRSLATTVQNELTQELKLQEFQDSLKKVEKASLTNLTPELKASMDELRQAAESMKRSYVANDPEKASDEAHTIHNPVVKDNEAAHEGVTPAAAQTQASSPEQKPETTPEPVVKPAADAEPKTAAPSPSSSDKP
T1 sequence 2: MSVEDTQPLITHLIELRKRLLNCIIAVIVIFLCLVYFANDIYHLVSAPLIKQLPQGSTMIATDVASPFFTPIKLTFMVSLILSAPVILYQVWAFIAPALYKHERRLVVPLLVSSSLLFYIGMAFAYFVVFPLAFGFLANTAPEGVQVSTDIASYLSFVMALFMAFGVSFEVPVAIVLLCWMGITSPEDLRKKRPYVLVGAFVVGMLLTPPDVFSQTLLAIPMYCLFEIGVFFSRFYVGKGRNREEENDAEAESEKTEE

“ssDmsA_45 (printed ssDmsD_45), truncated form of ssDmsA-GFP (domain or fragment)” gave a Kd (purified DmsD (E. coli)) of 55.9 nM.

B1: purified DmsD (natural protein)
chain: MTHFSQQDNFSVAARVLGALFYYAPESAEAAPLVAVLTSDGWETQWPLPEASLAPLVTAFQTQCEETHAQAWQRLFVGPWALPSPPWGSVWLDRESVLFGDSTLALRQWMREKGIQFEMKQNEPEDHFGSLLLMAAWLAENGRQTECEELLAWHLFPWSTRFLDVFIEKAEHPFYRALGELARLTLAQWQSQLLIPVAVKPLFR
B1: binds [1].
